# Source: the RNAGym collection of RNA variant scans (doi:10.7554/elife.90254)
# B1: OR4K15 (parent)
# chain: GUUAACGGUCAUAGGCCAUGGAAACUAGGAGCACCAUUUCGCUGCCAGUGAAGAAAUGAACAAAGAAAAUCUGGGCCAGGCAGGCAUCAAAAGAAAUAGUCUUGCGCUCAACCAGAAAGUCUGUAAUCAUUUUAAGGGUA
# Variants of: B1
# Experiment: self-cleavage, relative activity (ratio to wild type); higher = more cleavage; in vitro, sequencing; the parent is a self-cleaving ribozyme
row,Variant,self-cleavage
1,A82G U100C,1.36
2,A117U,0.59
3,A78U A89G,0.27
4,A33G A59G,0.98
5,U124G,0.98
6,A126C,0.52
7,A47C A92G,0.95
8,G15C A51U,1.07
9,A129G U132C,1.16
10,A24G A64U,1.51
11,U3C A118G,0.54
12,A30G A114U,0.05
13,A64G U132C,1.53
14,U9C A33G,1.15
15,A52C A95G,1.94
16,A60G A91U,1.31
17,A60G A91G,0.99
18,A13G A111G,0.15
19,U70C U87C,0.09
20,U26A U139A,1.05
21,A96G A118U,0.79
22,A60G A111G,0.03
23,A86U A92G,1.46
24,G7U G138C,2.14

row,Variant,self-cleavage
1,A69G U102A,0.58
2,A68G A116G,0.8
3,A11U A129U,0.64
4,A60U A67G,2.09
5,A66G U131C,1.04
6,U103C A118U,0.3
7,A62G A118G,1.01
8,A62G A118U,0.73
9,U2C A69U,1.15
10,G83A,1.55
11,A126G A140G,1.28
12,A30G A110U,1.1
13,U97G,1.77
14,A54G U120G,2.09
15,G80U U87C,0.22
16,A86U A89G,2.16
17,U12C A94U,1.8
18,A90G A111G,0.02
19,C34A U103C,0.77
20,A47G U70A,0.83
21,C46U A67G,1.56
22,A67G A94U,1.92
23,U72C A91C,0.27
24,U2G U57C,1.13

row,Variant,self-cleavage
1,G74U A117G,0.02
2,A63U U130C,0.28
3,U70C G123A,1.18
4,A89G A116C,0.22
5,A51G U130C,0.54
6,C16U A96G,1.27
7,A94G A116U,0.38
8,A86U A110G,0.09
9,A59U U102C,1.23
10,A96G A140G,1.47
11,A55G U120A,1.67
12,A92U A118G,1.02
13,A22G A92U,1.94
14,G28A A91G,1.19
15,A51U A126G,1.46
16,A68G U122C,1.18
17,A18U C88U,0.43
18,A30C A140G,1.69
19,A54C U57C,1.29
20,U2G U3C,1.11
21,U2G U12C,0.61
22,A125U U130C,1.66
23,A56G A111U,0
24,A47U A68U,0.73

row,Variant,self-cleavage
1,U9G A69G,1
2,A78U A118G,0.49
3,A90G A129G,0.22
4,U49G G75A,0.09
5,G119A A129U,0.67
6,A30C A55G,1.44
7,U70C A129G,0.33
8,G48A U72A,0.2
9,A91G U102A,0.67
10,A18U A22G,1.12
11,A24G A118G,1.01
12,A68G U103A,0.5
13,G123C,1.16
14,G123U,1.59
15,A13U G73A,0.16
16,A23G C42G,1.11
17,A33U A55U,2.31
18,G7A G75U,0.13
19,A54G A59G,0.84
20,U72G A90G,0.39
21,A5U A51U,0.66
22,A82C A118G,0.11
23,G48A A66U,1.33
24,A23C U70A,1.48

row,Variant,self-cleavage
1,A30U A95G,0.89
2,A55G A63U,1.1
3,U37C A116G,0.98
4,U49A U132C,1.09
5,A54U U122A,1.45
6,A18U C101A,0.05
7,A5G C101A,0.25
8,U102C U132C,2.04
9,A52G U131C,1.51
10,U26C A89U,0.5
11,U108G U139C,0
12,C76U G123A,0.13
13,G15U,0.69
14,U9C A95G,1.88
15,U49A A91G,1
16,U122A U131G,0.73
17,A11G U39A,0.88
18,U2C U120C,0.43
19,A13U A18C,1.62
20,A86U U133C,2.71
21,A68U U102C,2.04
22,A69G A96U,1.85
23,U43C A89G,2.04
24,A11G G73A,0.14

row,Variant,self-cleavage
1,A62C U97A,1.86
2,A67G U132C,1.66
3,A30G A36U,1.32
4,A51U G106A,0.03
5,U57G A135G,1.74
6,G29A C40A,1.82
7,U131A A134U,0.77
8,G99A A117G,0.36
9,U120C C128U,0.84
10,U57A A64G,1.32
11,U57C U127C,0.66
12,C61U A117G,1.54
13,G1A U49C,1.35
14,U87A U130C,1.36
15,G48A A56G,1.34
16,A59G G106A,0.02
17,U38A A51G,1.33
18,G48U A118G,1.08
19,U103C U124C,0.96
20,C77U A129G,1.77
21,G99A U131C,0.42
22,U2A A89U,1.2
23,U122A U139C,0.94
24,A11U C40A,1.2

row,Variant,self-cleavage
1,A66G U122C,1.67
2,G15A U108C,0
3,U72C A94C,0.1
4,A66U A69G,1.06
5,U87A U132C,1.35
6,A62G A114G,0.44
7,A22G A78G,0.27
8,G58U U127C,1.33
9,U97A U131C,1.62
10,A36G A60U,0.82
11,A60U G104A,0.03
12,C6U U130G,0.44
13,A91G A117C,0.67
14,U19A U131A,0.78
15,A78U A125G,0.03
16,G31A U108C,0.03
17,U122A A126G,0.67
18,A91G A135G,1.06
19,U49G A59U,1.34
20,A125G U131C,0.2
21,A13G U43C,0.98
22,A51G U102C,2.58
23,U72A A125G,0.05
